This is an account of results in PMC2665095 (The Journal of Biological Chemistry, 2009).

The target of series [1] is T1, PBS3 (AtGH3.12; His-PBS3) (Arabidopsis thaliana, UniProt Q9LYU4).
T1 sequence (Q9LYU4 1-575): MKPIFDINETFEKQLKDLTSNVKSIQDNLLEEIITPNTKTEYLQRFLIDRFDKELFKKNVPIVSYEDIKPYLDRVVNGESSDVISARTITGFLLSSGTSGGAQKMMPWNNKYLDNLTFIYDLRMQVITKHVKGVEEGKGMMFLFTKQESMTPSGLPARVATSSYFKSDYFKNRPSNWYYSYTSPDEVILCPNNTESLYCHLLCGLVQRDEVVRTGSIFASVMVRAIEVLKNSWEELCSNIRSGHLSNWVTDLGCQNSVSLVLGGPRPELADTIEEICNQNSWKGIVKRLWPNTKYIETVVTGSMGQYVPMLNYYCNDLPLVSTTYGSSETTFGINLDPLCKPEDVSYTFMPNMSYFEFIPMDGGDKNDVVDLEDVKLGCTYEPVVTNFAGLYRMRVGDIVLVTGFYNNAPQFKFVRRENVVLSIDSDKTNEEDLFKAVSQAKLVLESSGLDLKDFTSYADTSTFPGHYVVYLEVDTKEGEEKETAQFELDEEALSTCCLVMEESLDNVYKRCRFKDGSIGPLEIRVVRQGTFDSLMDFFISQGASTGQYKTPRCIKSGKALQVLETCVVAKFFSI
The series can be described thus: HPLC of pABA-Glu formation. Type of series: biochemical.

The target of series [2] is T1, PBS3 (AtGH3.12; His-PBS3). As to the kind of experiment: coupled adenylation assay. Particulars: 150 μM pABA, 5 mM ATP, 5 mM MgCl2, pH 7.4. Format: biochemical.
Substrate in series [3]: C=C(O[C@H]1C=CC=C(C(=O)O)[C@@H]1O)C(=O)O
As to the kind of experiment: coupled spectrophotometric assay. Type of series: biochemical, Pseudomonas aeruginosa. Particulars: modified ICS assay conditions (100 mM Tris, pH 7.7).

Substrate in series [4]: Nc1ccc(C(=O)O)cc1
As to the kind of experiment: purified protein. To be noted: 10 mM Glu, 5 mM ATP, 5 mM MgCl2, pH 8.5.

Substrate in series [5]: Nc1ncnc2c1ncn2[C@@H]1O[C@H](COP(=O)(O)OP(=O)(O)OP(=O)(O)O)[C@@H](O)[C@H]1O
As to the kind of experiment: purified protein. To be noted: with 10 mM 4-HBA, Mg2+, pH 7.4, 30 °C.

Substrate in series [6]: O=C(O)c1ccc(O)cc1
As to the kind of experiment: purified protein. To be noted: 10 mM Glu, 5 mM ATP, 5 mM MgCl2, pH 8.5.

Substrate in series [7]: O=C(O)c1ccccc1
The series can be described thus: purified protein. Particulars: 10 mM Glu, 5 mM ATP, 5 mM MgCl2, pH 8.5.

As for `O=C(O)c1ccccc1O` [salicylate], in series [1], the IC50 (as a rule, the concentration that gives 50% inhibition) is approximately 15 µM.

With `O=C(O)c1cc(Cl)nc(Cl)c1` [INA], the “Fractional inhibition (300 μM)” value in series [2] is given as 0.70 fraction.

B1: PchB (isochorismate pyruvate lyase) (Pseudomonas aeruginosa PAO1) (protein)
chain: MKTPEDCTGLADIREAIDRIDLDIVQALGRRMDYVKAASRFKASEAAIPAPERVAAMLPERARWAEENGLDAPFVEGLFAQIIHWYIAEQIKYWRQTRGAA
As to B1, the Michaelis-Menten constant (Km) (in general, the substrate concentration at which the rate is half of its maximum) in series [3] came to 60 µM.

B2: PBS3 (AtGH3.12; His-PBS3) (Arabidopsis thaliana) (protein)
chain: T1 sequence (Q9LYU4 1-575)
For the molecule B2, the Km in “purified protein [4]” was 153 µM; in the series “purified protein [5]”, 791 µM; in “purified protein [6]”, 459 µM; in “purified protein [7]” it was 867 µM. The values for the kcat in “purified protein [4]”, in the series “purified protein [6]” and in the series “purified protein [7]” were 0.0457 s⁻¹, 0.339 s⁻¹ and 0.066 s⁻¹, respectively. The kcat/Km (as a rule, the turnover number divided by the Michaelis constant) amounted to 298 M⁻¹ s⁻¹ in “purified protein [4]”, 740 M⁻¹ s⁻¹ in the series “purified protein [6]” and 76.7 M⁻¹ s⁻¹ in “purified protein [7]”.
